Test results: IntAct's records for PubMed 20498086

B1: Nuclear pore complex protein Nup98-Nup96 (Homo sapiens), P52948 (parent)
chain: MFNKSFGTPFGGGTGGFGTTSTFGQNTGFGTTSGGAFGTSAFGSSNNTGGLFGNSQTKPGGLFGTSSFSQPATSTSTGFGFGTSTGTANTLFGTASTGTSLFSSQNNAFAQNKPTGFGNFGTSTSSGGLFGTTNTTSNPFGSTSGSLFGPSSFTAAPTGTTIKFNPPTGTDTMVKAGVSTNISTKHQCITAMKEYESKSLEELRLEDYQANRKGPQNQVGAGTTTGLFGSSPATSSATGLFSSSTTNSGFAYGQNKTAFGTSTTGFGTNPGGLFGQQNQQTTSLFSKPFGQATTTQNTGFSFGNTSTIGQPSTNTMGLFGVTQASQPGGLFGTATNTSTGTAFGTGTGLFGQTNTGFGAVGSTLFGNNKLTTFGSSTTSAPSFGTTSGGLFGNKPTLTLGTNTNTSNFGFGTNTSGNSIFGSKPAPGTLGTGLGAGFGTALGAGQASLFGNNQPKIGGPLGTGAFGAPGFNTTTATLGFGAPQAPVALTDPNASAAQQAVLQQHINSLTYSPFGDSPLFRNPMSDPKKKEERLKPTNPAAQKALTTPTHYKLTPRPATRVRPKALQTTGTAKSHLFDGLDDDEPSLANGAFMPKKSIKKLVLKNLNNSNLFSPVNRDSENLASPSEYPENGERFSFLSKPVDENHQQDGDEDSLVSHFYTNPIAKPIPQTPESAGNKHSNSNSVDDTIVALNMRAALRNGLEGSSEETSFHDESLQDDREEIENNSYHMHPAGIILTKVGYYTIPSMDDLAKITNEKGECIVSDFTIGRKGYGSIYFEGDVNLTNLNLDDIVHIRRKEVVVYLDDNQKPPVGEGLNRKAEVTLDGVWPTDKTSRCLIKSPDRLADINYEGRLEAVSRKQGAQFKEYRPETGSWVFKVSHFSKYGLQDSDEEEEEHPSKTSTKKLKTAPLPPASQTTPLQMALNGKPAPPPQSQSPEVEQLGRVVELDSDMVDITQEPVLDTMLEESMPEDQEPVSASTHIASSLGINPHVLQIMKASLLTDEEDVDMALDQRFSRLPSKADTSQEICSPRLPISASHSSKTRSLVGGLLQSKFTSGAFLSPSVSVQECRTPRAASLMNIPSTSSWSVPPPLTSVFTMPSPAPEVPLKTVGTRRQLGLVPREKSVTYGKGKLLMDMALFMGRSFRVGWGPNWTLANSGEQLNGSHELENHQIADSMEFGFLPNPVAVKPLTESPFKVHLEKLSLRQRKPDEDMKLYQTPLELKLKHSTVHVDELCPLIVPNLGVAVIHDYADWVKEASGDLPEAQIVKHWSLTWTLCEALWGHLKELDSQLNEPREYIQILERRRAFSRWLSCTATPQIEEEVSLTQKNSPVEAVFSYLTGKRISEACSLAQQSGDHRLALLLSQFVGSQSVRELLTMQLVDWHQLQADSFIQDERLRIFALLAGKPVWQLSEKKQINVCSQLDWKRSLAIHLWYLLPPTASISRALSMYEEAFQNTSDSDRYACSPLPSYLEGSGCVIAEEQNSQTPLRDVCFHLLKLYSDRHYDLNQLLEPRSITADPLDYRLSWHLWEVLRALNYTHLSAQCEGVLQASYAGQLESEGLWEWAIFVLLHIDNSGIREKAVRELLTRHCQLLETPESWAKETFLTQKLRVPAKWIHEAKAVRAHMESDKHLEALCLFKAEHWNRCHKLIIRHLASDAIINENYDYLKGFLEDLAPPERSSLIQDWETSGLVYLDYIRVIEMLRHIQQVDCSGNDLEQLHIKVTSLCSRIEQIQCYSAKDRLAQSDMAKRVANLLRVVLSLHHPPDRTSDSTPDPQRVPLRLLAPHIGRLPMPEDYAMDELRSLTQSYLRELAVGSL
partner: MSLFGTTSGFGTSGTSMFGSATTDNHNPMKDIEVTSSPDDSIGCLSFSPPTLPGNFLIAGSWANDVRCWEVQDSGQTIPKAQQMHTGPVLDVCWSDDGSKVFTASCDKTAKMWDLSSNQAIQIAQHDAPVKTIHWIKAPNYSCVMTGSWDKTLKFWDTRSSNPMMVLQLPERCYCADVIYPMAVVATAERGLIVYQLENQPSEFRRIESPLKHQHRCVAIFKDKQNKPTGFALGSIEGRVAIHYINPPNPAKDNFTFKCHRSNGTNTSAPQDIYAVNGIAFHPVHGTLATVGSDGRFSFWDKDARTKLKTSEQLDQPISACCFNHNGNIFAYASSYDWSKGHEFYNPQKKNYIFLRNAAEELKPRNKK

Variants of: B1
Settings: with rae1l_human RAE1, P78406

Variant	effect of a mutation on the interaction
E201K;E202K	disrupting interaction
